Results: the Immune Epitope Database (IEDB)

How the values were obtained:
[1] = target: HLA-B*18:01; experiment: IEDB peptide-MHC binding, purified MHC/competitive/radioactivity; filed as Kd, often an IC50 or EC50 that approximates it; ≥ and ≤ were set here for values at or beyond the usual limits of such assays
[2] = target: HLA-B*40:01; experiment: as above
[3] = target: HLA-B*40:02; experiment: as above
[4] = target: HLA-B*44:02; experiment: as above
[5] = target: HLA-B*44:03; experiment: as above
[6] = target: HLA-B*45:01; experiment: as above
[7] = target: HLA-A*30:01; experiment: as above; conditions: source organism: Vaccinia virus WR
[8] = target: HLA-A*32:01; experiment: as above; conditions: source organism: Vaccinia virus WR
[9] = target: HLA-B*08:01; experiment: as above; conditions: source organism: Vaccinia virus WR
[10] = target: HLA-B*15:01; experiment: as above; conditions: source organism: Vaccinia virus WR
[11] = target: HLA-B*15:03; experiment: as above; conditions: source organism: Vaccinia virus WR
[12] = target: HLA-A*02:01; experiment: IEDB peptide-MHC binding, purified MHC/competitive/fluorescence; ≥ and ≤ were set here for values at or beyond the usual limits of such assays; conditions: source organism: Vaccinia virus Copenhagen
[13] = target: HLA-A*03:01; experiment: as above
[14] = target: HLA-A*11:01; experiment: as above
[15] = target: HLA-A*31:01; experiment: IEDB peptide-MHC binding, purified MHC/competitive/radioactivity; filed as Kd, often an IC50 or EC50 that approximates it; ≥ and ≤ were set here for values at or beyond the usual limits of such assays; conditions: source organism: Vaccinia virus WR
[16] = target: HLA-A*33:01; experiment: as above; conditions: source organism: Vaccinia virus WR
[17] = target: HLA-A*68:01; experiment: as above; conditions: source organism: Vaccinia virus WR
[18] = target: HLA-A*01:01; experiment: IEDB peptide-MHC binding, purified MHC/direct/fluorescence; filed as Kd, often an IC50 or EC50 that approximates it; ≥ and ≤ were set here for values at or beyond the usual limits of such assays; conditions: source organism: Influenza A virus (A/Duck/Shantou/1881/00(H9N2))
[19] = target: HLA-A*02:01; experiment: as above; conditions: source organism: Influenza A virus (A/Duck/Shantou/1881/00(H9N2))
[20] = target: HLA-A*02:03; experiment: as above; conditions: source organism: Influenza A virus(A/swine/Henan/8/2004(H9N2))
[21] = target: HLA-A*02:11; experiment: as above; conditions: source organism: Influenza A virus(A/swine/Henan/8/2004(H9N2))
[22] = target: HLA-A*02:12; experiment: as above; conditions: source organism: Influenza A virus(A/swine/Henan/8/2004(H9N2))
[23] = target: HLA-A*02:19; experiment: as above; conditions: source organism: Influenza A virus(A/swine/Henan/8/2004(H9N2))
[24] = target: HLA-A*03:01; experiment: as above; conditions: source organism: Influenza A virus (A/Duck/Shantou/1881/00(H9N2))
[25] = target: HLA-A*11:01; experiment: as above; conditions: source organism: Influenza A virus (A/Duck/Shantou/1881/00(H9N2))
[26] = target: HLA-A*24:03; experiment: as above; conditions: source organism: Influenza A virus (A/Duck/Shantou/1881/00(H9N2))
[27] = target: HLA-A*31:01; experiment: as above; conditions: source organism: Influenza A virus (A/Duck/Shantou/1881/00(H9N2))
[28] = target: HLA-B*07:02; experiment: as above; conditions: source organism: Influenza A virus (A/Duck/Shantou/1881/00(H9N2))
[29] = target: HLA-B*15:01; experiment: as above; conditions: source organism: Influenza A virus (A/Duck/Shantou/1881/00(H9N2))
[30] = target: HLA-B*27:05; experiment: as above; conditions: source organism: Influenza A virus (A/Duck/Shantou/1881/00(H9N2))
[31] = target: HLA-B*40:01; experiment: as above; conditions: source organism: Influenza A virus (A/Duck/Shantou/1881/00(H9N2))
[32] = target: HLA-B*58:01; experiment: as above; conditions: source organism: Influenza A virus (A/Duck/Shantou/1881/00(H9N2))
[33] = target: HLA-A*24:02; experiment: IEDB peptide-MHC binding, purified MHC/competitive/fluorescence; ≥ and ≤ were set here for values at or beyond the usual limits of such assays; conditions: source organism: Sudan ebolavirus
[34] = source organism: Lymphocytic choriomeningitis virus (strain Armstrong)
[35] = source organism: Mammarenavirus lassaense
[36] = source organism: Mammarenavirus brazilense
[37] = source organism: SARS coronavirus Tor2
[38] = source organism: Vaccinia virus Copenhagen
[39] = source organism: Zaire ebolavirus
[40] = source organism: Sudan ebolavirus
[41] = source organism: Mammarenavirus juninense

AEALGPFQS
Kd [1, 34]: ≥ 77500 nM
Kd [2, 34]: ≥ 32100 nM
Kd [3, 34]: 4960 nM
Kd [4, 34]: 1320 nM
Kd [5, 34]: 6970 nM
Kd [6, 34]: 132 nM

FDAAASGGL
Kd [1, 35]: ≥ 65200 nM
Kd [2, 35]: ≥ 28500 nM
Kd [3, 35]: 3020 nM
Kd [4, 35]: ≥ 77900 nM
Kd [5, 35]: ≥ 78100 nM
Kd [6, 35]: ≥ 32200 nM

FEEHLAPFMS
Kd [1, 36]: 3380 nM
Kd [2, 36]: 2360 nM
Kd [3, 36]: 2570 nM
Kd [4, 36]: ≥ 47400 nM
Kd [5, 36]: ≥ 70100 nM
Kd [6, 36]: 8780 nM

FEKMVSLLSV
Kd [1, 37]: 145 nM
Kd [2, 37]: 25.2 nM
Kd [3, 37]: 23.7 nM
Kd [4, 37]: 3280 nM
Kd [5, 37]: 6180 nM
Kd [6, 37]: 784 nM

FELTSMKYFV
Kd [1, 37]: ≥ 37900 nM
Kd [2, 37]: 2140 nM
Kd [3, 37]: 24.2 nM
Kd [4, 37]: 7160 nM
Kd [5, 37]: 4470 nM
Kd [6, 37]: 7780 nM

FESYVRPFVA
Kd [1, 35]: 982 nM
Kd [2, 35]: 5420 nM
Kd [3, 35]: 19.9 nM
Kd [4, 35]: ≥ 70200 nM
Kd [5, 35]: ≥ 32000 nM
Kd [6, 35]: 151 nM

FFKQTFGSL
Kd [7]: 497 nM
Kd [8]: ≥ 55800 nM
Kd [9]: 0.735 nM
Kd [10]: 1560 nM
Kd [11]: 1080 nM

FIMLEGETK
IC50 [12]: 30700 nM
IC50 [13, 38]: ≥ 116000 nM
IC50 [14, 38]: 4880 nM
Kd [15]: 17800 nM
Kd [16]: 4410 nM
Kd [17]: 28.1 nM

FVYVPELSF
Kd [10]: 0.963 nM
Kd [11]: 203 nM

GDVELLGTT
Kd [1, 35]: ≥ 77500 nM
Kd [2, 35]: ≥ 33700 nM
Kd [3, 35]: 5920 nM
Kd [4, 35]: ≥ 41800 nM
Kd [5, 35]: ≥ 52100 nM
Kd [6, 35]: 16600 nM

GERSRCYSL
Kd [1, 36]: ≥ 77500 nM
Kd [2, 36]: 3380 nM
Kd [3, 36]: 51.2 nM
Kd [4, 36]: ≥ 77900 nM
Kd [5, 36]: ≥ 78100 nM
Kd [6, 36]: ≥ 77700 nM

GERYYFAYI
Kd [7]: 6620 nM
Kd [8]: 19500 nM
Kd [9]: 6.86 nM
Kd [10]: 673 nM
Kd [11]: 238 nM

HGFRFEVKK
IC50 [13, 39]: 2200 nM
IC50 [14, 39]: 86.5 nM

ILHHHRNVF
Kd [9]: 13 nM
Kd [11]: 1.33 nM

IMVSEHFSL
Kd [11]: 5.51 nM

ITKGRISDR
IC50 [13, 40]: 66300 nM
IC50 [14, 40]: ≥ 135000 nM

KMAADRGAF
Kd [11]: 2.5 nM

KPNSFTFSF
Kd [8]: 13900 nM
Kd [11]: 254 nM

KTIYAVDSF
Kd [7]: 1390 nM
Kd [8]: 6.78 nM
Kd [9]: ≥ 31900 nM
Kd [10]: 4.04 nM
Kd [11]: 321 nM

NMFNISFRF
Kd [7]: 27.2 nM
Kd [8]: 3.6 nM
Kd [9]: 1540 nM
Kd [10]: 43.4 nM
Kd [11]: 18.5 nM

QELYSPLFLI
Kd [1, 37]: 4910 nM
Kd [2, 37]: 690 nM
Kd [3, 37]: 10.7 nM
Kd [4, 37]: 7.01 nM
Kd [5, 37]: 7.36 nM
Kd [6, 37]: 45.6 nM

QTNTKATGK
IC50 [13, 40]: 14000 nM
IC50 [14, 40]: 2180 nM

REGVFVFNGT
Kd [1, 37]: ≥ 70500 nM
Kd [2, 37]: 677 nM
Kd [3, 37]: 274 nM
Kd [4, 37]: 1600 nM
Kd [5, 37]: 306 nM
Kd [6, 37]: 222 nM

RGSWATSSF
Kd [11]: 11.1 nM

RKYSDLVPK
IC50 [13, 40]: 49100 nM
IC50 [14, 40]: 4130 nM

RSLIIVLLF
Kd [7]: 2350 nM
Kd [8]: 299 nM
Kd [9]: 959 nM
Kd [10]: 194 nM
Kd [11]: 225 nM

SEAPNAKEEI
Kd [1, 37]: ≥ 27200 nM
Kd [2, 37]: 1180 nM
Kd [3, 37]: 3350 nM
Kd [4, 37]: 105 nM
Kd [5, 37]: 145 nM
Kd [6, 37]: 319 nM

SEAQMSIQL
Kd [1, 35]: 1100 nM
Kd [2, 35]: 11600 nM
Kd [3, 35]: 15.3 nM
Kd [4, 35]: 161 nM
Kd [5, 35]: 99.3 nM
Kd [6, 35]: 542 nM

SEILRTLGF
Kd [1, 41]: 115 nM
Kd [2, 41]: 4180 nM
Kd [3, 41]: 56.1 nM
Kd [4, 41]: 18.7 nM
Kd [5, 41]: 37.3 nM
Kd [6, 41]: 7590 nM

SGNRGSTSF
Kd [11]: 25.2 nM

SLPPNFSSL
Kd [18]: ≥ 20000 nM
Kd [19]: 9.3 nM
Kd [20]: 3 nM
Kd [21]: 24 nM
Kd [22]: 5 nM
Kd [23]: 124 nM
Kd [24]: ≥ 20000 nM
Kd [25]: ≥ 20000 nM
Kd [26]: 7.5 nM
Kd [27]: ≥ 20000 nM
Kd [28]: 1650 nM
Kd [29]: 115 nM
Kd [30]: ≥ 20000 nM
Kd [31]: ≥ 20000 nM
Kd [32]: ≥ 20000 nM

SLPRIALVR
IC50 ([13]; source organism: Variola virus): 781 nM
IC50 ([14]; source organism: Variola virus): 408 nM

SQQNSDSIF
Kd [11]: 1.87 nM

TKFTDFQDF
Kd [11]: 2.22 nM

TKTLDISSF
Kd [11]: 54.5 nM

TYTILNRKA
IC50 [13, 40]: ≥ 94900 nM
IC50 [14, 40]: ≥ 90000 nM
IC50 [33]: 22100 nM

VEAVMYMGT
Kd [1, 37]: 2470 nM
Kd [2, 37]: ≥ 31300 nM
Kd [3, 37]: 1320 nM
Kd [4, 37]: ≥ 21900 nM
Kd [5, 37]: 6510 nM
Kd [6, 37]: 616 nM

YDFNKLTAL
Kd [1, 35]: 6780 nM
Kd [2, 35]: 5340 nM
Kd [3, 35]: 19.8 nM
Kd [4, 35]: 2270 nM
Kd [5, 35]: 9170 nM
Kd [6, 35]: ≥ 77700 nM

YKVFTDISM
Kd [11]: 2.18 nM
